Assay results from publication PMC3898896 (Journal of Molecular Biology, 2013).

Biological target: the molecule itself
Assay: crystal structure

B1: N-terminal dimerization domain of S. pombe Cdc23 (Cdc23^N19-302,Y302A) (domain or fragment, UniProt O94556 19-302, looked up)
chain: QLREIRNCLLKCISECSERGLVYAVRWAAEMLNGMNPIEMEHIPFSSTPTGEFDLDPDMANEKLLEVEEKNIYLLAKSYFDCKEFERAAYTLQNCKSSKSIFLRLYSKYLAGEKKSEEENETLLNTNLTLSSTNREFYYISEVLESLHYQGNKDPYLLYLSGVVYRKRKQDSKAIDFLKSCVLKAPFFWSAWLELSLSIDSLETLTTVVSQLPSTHIMTKIFYVYASHELHQVNSSAYEKLAEAEIIFPNSRYLKTQRALLTYDSRDFDEAESLFENILTNDPA
- stoichiometry N: 2
